The text below walks through data of paper PMC11136987 (2024).

Test [1] addresses recombinant full-length HAX-1 (UniProt O00165 1-279). As to the kind of experiment: BLI. A general note: Biolayer interferometry detects binding as a change in optical thickness at a sensor tip.
Test [2] concerns the target recombinant full-length ASC (UniProt Q9ULZ3 1-195). Kind of test: BLI.

recombinant full-length ASC, sequence (Q9ULZ3 whole entry): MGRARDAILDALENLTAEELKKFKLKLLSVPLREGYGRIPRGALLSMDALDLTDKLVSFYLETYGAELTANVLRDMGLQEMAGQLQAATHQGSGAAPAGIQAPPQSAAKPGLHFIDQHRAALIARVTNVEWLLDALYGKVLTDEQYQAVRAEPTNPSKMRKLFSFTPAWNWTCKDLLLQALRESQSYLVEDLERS
recombinant full-length HAX-1, sequence (O00165 whole entry): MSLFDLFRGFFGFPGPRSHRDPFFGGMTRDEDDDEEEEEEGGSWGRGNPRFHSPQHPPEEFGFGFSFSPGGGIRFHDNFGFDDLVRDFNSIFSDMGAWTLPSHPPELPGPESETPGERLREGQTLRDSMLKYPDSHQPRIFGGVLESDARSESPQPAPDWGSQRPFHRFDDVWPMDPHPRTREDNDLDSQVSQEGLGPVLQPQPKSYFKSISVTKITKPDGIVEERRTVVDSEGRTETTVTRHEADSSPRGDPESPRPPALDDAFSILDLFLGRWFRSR

B1: recombinant partial NLRP3 1-536aa (domain or fragment)
chain: MKMASTRCKLARYLEDLEDVDLKKFKMHLEDYPPQKGCIPLPRGQTEKADHVDLATLMIDFNGEEKAWAMAVWIFAAINRRDLYEKAKRDEPKWGSDNARVSNPTVICQEDSIEEEWMGLLEYLSRISICKMKKDYRKKYRKYVRSRFQCIEDRNARLGESVSLNKRYTRLRLIKEHRSQQEREQELLAIGKTKTCESPVSPIKMELLFDPDDEHSEPVHTVVFQGAAGIGKTILARKMMLDWASGTLYQDRFDYLFYIHCREVSLVTQRSLGDLIMSCCPDPNPPIHKIVRKPSRILFLMDGFDELQGAFDEHIGPLCTDWQKAERGDILLSSLIRKKLLPEASLLITTRPVALEKLQHLLDHPRHVEILGFSEAKRKEYFFKYFSDEAQARAAFSLIQENEVLFTMCFIPLVCWIVCTGLKQQMESGKSLAQTSKTTTAVYVFFLSSLLQPRGGSQEHGLCAHLWGLCSLAADGIWNQKILFEESDLRNHGLQKADVSAFLRMNLFQKEVDCEKFYSFIHMTFQEFFAAMYYLL
modifications: biotinylated (sites not given)
Usually Kd stands for the equilibrium constant for the complex coming apart. On to B1, for which the values for the equilibrium dissociation constant (Kd) in test [1] and in test [2] were 3.38 nM and 7.33 nM, respectively.
